From patent US20230374114A1 (published 2023) come the findings set out here.

Read-outs that look alike come from different tables or passages of the source. Some results are limits rather than exact numbers.

What all share (assay): BLI
For orientation: In BLI a coated tip is dipped into the sample, and binding shifts an interference pattern.

For test [1], the target named is T1, Biotinylated SARS-CoV-2 S1 protein (ACRO, S1N-C82E8) (UniProt P0DTC2 16-685).
Test [2] addresses T1, Biotinylated SARS-CoV-2 S1 protein …. This is another data set of the same source.
The target is the same in test [3]. This is another data set of the same source.
For test [4] the target is unchanged. The source holds these as a separate data set.
The target is the same in test [5]. The source holds these as a separate data set.
Test [6] shares this target. The source holds these as a separate data set.

B1: Ab 23 scFv-Fc (scFv, V domains shown)
VH: EVQLVQSGAEVKKPGSSVKVSCRSSGGTFSTYGITWVRQAPGQGLEWMGRIIPSLGIPNYAQKFQGRVTITADTSVSTAWMELSSLESDDTAIYYCARENIDLATNDFWGQGTLVTVSS
VL: QSALTQPPSASGSPGQSVTISCTGTSRDIGAYGYVSWYQQVPGKAPKLIIYEVRNRPSGVSSRFSGSKSGNTASLTISGLQAEDEADYYCSSYTSSSTLDVVFGGGTKLTVL
Usually Kd stands for the constant that tells how readily two partners part at equilibrium. Read a high Kd as weaker binding. Take B1: the Kd in test [1] and in test [2] was 338 pM each time.

B2: Ab_17 (scFv, V domains shown)
VH: QVQLVQSGGGVVQPGRSLRLSCAASGFTFDDYAMHWVRQVPGKGLEWVSGIDWNSGVIGYADSVKGRFTISRDNVKNSLYLQMNSLRTEDSALYYCAKDIGPGGSGSYYAFDIWGQGTTVTVSS
VL: QSALTQPASVSGSPGQSITISCTGTSSDVGGSKYVSWYQQHPGKAPKVMIYDVTKRPSGVPDRFSGSKSGNTASLTISGLQAEDEADYYCAAWDDSLNGVVFGGGTKLTVL
Regarding B2, the Kd in test [1] and in test [2] was 716 pM each time.

B3: Ab 28 scFv-Fc (scFv, V domains shown)
VH: QVTLKESGPGLVNPSETLSLTCTVSGASISNSFWSWIRQSPGKGLEWIGYTSYSGNSIYNPSLKSRLTMSIDTSKNQLSLNLRSLTAADTAVYYCARREWIKGHFDYWGQGTLVTVSS
VL: NFMLTQPHSVSESPGKTVTISCTGSGGSIASNYVQWYQQRPGSAPTTVIYEDNQRPSGVPDRFSGSIDSSSNSASLTISGLKTEDEADYYCQSYDSSNPVVFGGGTKLTVL
Take B3: the Kd in test [1] and in test [2] was less than 1 pM each time.

B4: Ab 12 scFv-Fc (S1-R3-T1-H7) (scFv, V domains shown)
VH: EVQLVESGPGVVSPSATLFLTCSVSGGSIRTHSWNWIRQPPGKPLEWIGFIHHSGATNKNPSLKSRVTISSDTSKNEFSLTLTSVTAADTAVYYCARGPGILSYWSRGTLVTVSS
VL: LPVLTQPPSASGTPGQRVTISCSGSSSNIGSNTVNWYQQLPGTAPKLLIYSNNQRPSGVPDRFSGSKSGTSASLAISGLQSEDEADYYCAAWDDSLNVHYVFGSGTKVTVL
For B4, the Kd in test [3], in test [4], in test [5], in test [6] and in test [2] was less than 1 pM throughout.

B5: Ab 27 scFv-Fc (scFv, V domains shown)
VH: QVQLVQSGTEVKKPGASVKVSCKASGYSFTGSHLHWVRQAPGQGLEWMGWINPDSGVINYAQKFQGRVTLTRDTSISTAYMELSGLRSDDTAVYYCARDKAIGYVWALDYWGQGTLVTVSS
VL: QSALTQPPSVSGSPGQSVTISCTGTSSDVGTYNRVSWYQQPPGKAPKLMIYEVSNRPSGVSNRFSGSKSGNTASLTISGLQAEDEADYYCSSYTRTFTYVFGTGTKVTVL
As for B5, the Kd in test [1] and in test [2] was less than 1 pM throughout.
